Data from the PETadex activity labels (doi:10.1021/acsomega.4c04843).
Changes are numbered by the printed parent chain.

B1: unnamed (protein)
chain: MLHYKTYTISDDHPWVIFIHGAGGSLSHWYRQLRPFRKKYNVLLVDLRGHGGSYDAEQSLKQPLNAYTFDVVAKDVIEVMDHLGIEKGHMVGLSLGTIVIQAMFEHYPDRIASVVLGGAIVKFNVRSTMLIRLGSLVQNFVPYMWLYKLFAWILLPKKRHKKSRMMFVRDAANLCQREFIRWFKMTENINPLLNQFTSIQTNVPILYIMGDEDYMFLEAVERTAKHQPTANVEIVADSGHVVNVDQPDQFNALSMNFIDDQIQARSLQMS
B2: unnamed (protein)
chain: MFRFHIVSALLTLFIAVPSQAHDVGQREIKISGAEPGRNLEVSVWYPAAIDGKATLIGDNIIFKGAPAVIDATPEKGSFPLLVMSHGSGGRAQGMAWLATELVKAGIIVAAPNHPGTTSGDSTPQDTPKIWQRTGDLSAVIDTMTTDPAWSGIIDKNKISVLGWSLGGAAAMEIAGARANLEAYARYCDTYGKWDCAWYAGGIGYRDDKQIKVDKVDLRSVDKSRFEQSNLDRRIASAIMIDPGLAQAYDAQSLASISIPMSFINLGEVETIPTGVVADKLASITPQGTYVTVAGATHFSFLPECKKGAADRLKSAGEVDPICSDDARRPRADIHADITKLVLKALQSMPKT
B3: unnamed (protein)
chain: B2 chain with W164F, D242A
B4: unnamed (protein)
chain: B2 chain with W164F, L166M
B5: unnamed (protein)
chain: B2 chain with W164F, F299I
B6: unnamed (protein)
chain: B2 chain with W164F, A294D
B7: unnamed (protein)
chain: B2 chain with W164F, C188A

How the values were obtained:
[1] = substrate: pNPB; assay: Proxy for plastic degradation [p-nitrophenol (pNP) release]; conditions: pH 7.4
[2] = substrate: PET; assay: Proxy for plastic degradation [Released monomer concentration (HPLC/LC-MS) (TPA)]; conditions: pH 8

Protein	Proxy for plastic degradation [1] [U/mL]	Proxy for plastic degradation [2] [mM/mg]
B1	4	–
B2	5	–
B3	20	–
B4	225	–
B5	75	–
B6	100	1
B7	10	–
